The labels stand for the following.
B1: receptor-associated protein (RAP) (other, UniProt P30533 35-357, looked up)
chain: YSREKNQPKPSPKRESGEEFRMEKLNQLWEKAQRLHLPPVRLAELHADLKIQERDELAWKKLKLDGLDEDGEKEARLIRNLNVILAKYGLDGKKDARQVTSNSLSGTQEDGLDDPRLEKLWHKAKTSGKFSGEELDKLWREFLHHKEKVHEYNVLLETLSRTEEIHENVISPSDLSDIKGSVLHSRHTELKEKLRSINQGLDRLRRVSHQGYSTEAEFEEPRVIDLWDLAQSANLTDKELEAFREELKHFEAKIEKHNHYQKQLEIAHEKLRHAESVGDGERVSRSREKHALLEGRTKELGYTVKKHLQDLSGRISRARHNEL
B2: ovalbumin (other, UniProt P01012 2-386, looked up)
chain: GSIGAASMEFCFDVFKELKVHHANENIFYCPIAIMSALAMVYLGAKDSTRTQINKVVRFDKLPGFGDSIEAQCGTSVNVHSSLRDILNQITKPNDVYSFSLASRLYAEERYPILPEYLQCVKELYRGGLEPINFQTAADQARELINSWVESQTNGIIRNVLQPSSVDSQTAMVLVNAIVFKGLWEKAFKDEDTQAMPFRVTEQESKPVQMMYQIGLFRVASMASEKMKILELPFASGTMSMLVLLPDEVSGLEQLESIINFEKLTEWTSSNVMEERKIKVYLPRMKMEEKYNLTSVLMAMGITDVFSSSANLSGISSAESLKISQAVHAAHAEINEAGREVVGSAEAGVDAASVSEEFRADHPFLFCIKHIATNAVLFFGRCVSP
B3: tissue plasminogen activator (tPA) (enzyme, UniProt P00750 36-562, looked up)
chain: SYQVICRDEKTQMIYQQHQSWLRPVLRSNRVEYCWCNSGRAQCHSVPVKSCSEPRCFNGGTCQQALYFSDFVCQCPEGFAGKCCEIDTRATCYEDQGISYRGTWSTAESGAECTNWNSSALAQKPYSGRRPDAIRLGLGNHNYCRNPDRDSKPWCYVFKAGKYSSEFCSTPACSEGNSDCYFGNGSAYRGTHSLTESGASCLPWNSMILIGKVYTAQNPSAQALGLGKHNYCRNPDGDAKPWCHVLKNRRLTWEYCDVPSCSTCGLRQYSQPQFRIKGGLFADIASHPWQAAIFAKHRRSPGERFLCGGILISSCWILSAAHCFQERFPPHHLTVILGRTYRVVPGEEEQKFEVEKYIVHKEFDDDTYDNDIALLQLKSDSSRCAQESSVVRTVCLPPADLQLPDWTECELSGYGKHEALSPFYSERLKEAHVRLYPSSRCTSQHLLNRTVTDNMLCAGDTRSGGPQANLHDACQGDSGGPLVCLNDGRMTLVGIISWGLGCGQKDVPGVYTKVTNYLDWIRDNMRP
notes: Bought reagent
B4: angiostatin (other, UniProt P00747 98-459, looked up)
chain: VYLSECKTGNGKNYRGTMSKTKNGITCQKWSSTSPHRPRFSPATHPSEGLEENYCRNPDNDPQGPWCYTTDPEKRYDYCDILECEEECMHCSGENYDGKISKTMSGLECQAWDSQSPHAHGYIPSKFPNKNLKKNYCRNPDRELRPWCFTTDPNKRWELCDIPRCTTPPPSSGPTYQCLKGTGENYRGNVAVTVSGHTCQHWSAQTPHTHNRTPENFPCKNLDENYCRNPDGKRAPWCHTTNSQVRWEYCKIPSCDSSPVSTEQLAPTAPPELTPVVQDCYHGDGQSYRGTSSTTTTGKKCQSWSSMTPHRHQKTPENYPNAGLTMNYCRNPDADKGPWCFTTDPSVRWEYCNLKKCSGTEA
notes: domain: angiostatin (plasminogen fragment)
B5: Soluble human recombinant p97 (melanotransferrin) (other)
chain: GMEVRWCATSDPEQHKCGNMSEAFREAGIQPSLLCVRGTSADHCVQLIAAQEADAITLDGGAIYEAGKEHGLKPVVGEVYDQEVGTSYYAVAVVRRSSHVTIDTLKGVKSCHTGINRTVGWNVPVGYLVESGRLSVMGCDVLKAVSDYFGGSCVPGAGETSYSESLCRLCRGDSSGEGVCDKSPLERYYDYSGAFRCLAEGAGDVAFVKHSTVLENTDGKTLPSWGQALLSQDFELLCRDGSRADVTEWRQCHLARVPAHAVVVRADTDGGLIFRLLNEGQRLFSHEGSSFQMFSSEAYGQKDLLFKDSTSELVPIATQTYEAWLGHEYLHAMKGLLCDPNRLPPYLRWCVLSTPEIQKCGDMAVAFRRQRLKPEIQCVSAKSPQHCMERIQAEQVDAVTLSGEDIYTAGKKYGLVPAAGEHYAPEDSSNSYYVVAVVRRDSSHAFTLDELRGKRSCHAGFGSPAGWDVPVGALIQRGFIRPKDCDVLTAVSEFFNASCVPVNNPKNYPSSLCALCVGDEQGRNKCVGNSQERYYGYRGAFRCLVENAGDVAFVRHTTVFDNTNGHNSEPWAAELRSEDYELLCPNGARAEVSQFAACNLAQIPPHAVMVRPDTNIFTVYGLLDKAQDLFGDDHNKNGFKMFDSSNYHGQDLLFKDATVRAVPVGEKTTYRGWLGLDYVAALEGMSSQQCSG
notes: Provided by Biomarin Pharmaceutical Inc; also called soluble p97; MTf

The target of data set [1] is B5. Description: SPR (BIAcore), RAP injected over immobilised p97. On the procedure: (§1) Ringer solution or a 50 mM Tris/HCl buffer (pH 7.5) containing 150 mM NaCl and 50 mM CaCl₂ is used as the eluent buffer. Proteins are diluted in the corresponding eluent buffer and injected onto the sensor chip surface. Protein interactions are analyzed using both the Langmuir binding model, which is the simplest model for 1:1 interaction between analyte and immobilized ligand, and a two-state conformational change model which describes a 1:1 binding of analyte to immobilized ligand followed by a conformational change.
(§2) Transcytosis experiments are performed at 37° C. for 2 hrs. […] At the end of the experiment, radiolabelled proteins are measured in the lower chamber of each well by TCA precipitation.

For data set [2], the target named is B5. Description: not described (Discussion; presumably SPR).
Data set [3] concerns the target B5. Description: SPR (BIAcore), tPA injected over immobilised p97. Here is the method:
as §1
(§3) The SPR response for these proteins is plotted in RU as a function of time.
(§4) About 8-10 ng/mm² of PAI-1 was also immobilized onto another well of a sensor chip surface using NHS/EDC coupling conditions.

The target in data set [4] is B5. Description: SPR (BIAcore), angiostatin injected over immobilised p97. On the procedure: as §1, §3, §4
The target in data set [5] is T1, pro-urokinase plasminogen activator (pro-uPA) (UniProt P00749 21-431, limits assumed).
T1 construct: Bought reagent; also called sc-uPA; scu-PA
Description: SPR (BIAcore), pro-uPA over immobilised p97, two state conformational change model (kd1). On the procedure:
(§5) Protein interactions are analyzed using both the Langmuir binding model, which is the simplest model for 1:1 interaction between analyte and immobilized ligand, and a two-state conformational change model which describes a 1:1 binding of analyte to immobilized ligand followed by a conformational change.
as §3, §4

In another data set the target is plasmin (UniProt P00747 97-810, limits assumed). Description: SPR (BIAcore), plasmin injected over immobilised p97. Here is the method: as §1, §3, §4
For data set [6], the target named is T2, plasminogen (UniProt P00747 20-810). Description: cell-based or functional assay.
The target in data set [7] is T2, plasminogen. Description: SPR (BIAcore), p97 over immobilised plasminogen, two state conformation change model. Here is the method: as §1
Data set [8] has as its target T1, pro-urokinase plasminogen activator …. Description: SPR (BIAcore), pro-uPA over immobilised p97, two state conformational change model (apparent KD). On the procedure: as §5, §3, §4
Data set [9] concerns the molecule itself. Description: SPR (BIAcore), soluble p97 injected over p97 immobilised on a CM5 chip. On the procedure: as §1, §2
Data set [10] concerns the target T2, plasminogen. Description: SPR (BIAcore), plasminogen over immobilised p97, two state conformational change model (ka1). On the procedure: as §1, §3, §4
For data set [11], the target named is T2, plasminogen. Description: SPR (BIAcore), various concentrations of p97 injected over immobilised plasminogen; plasminogen immobilized, p97 injected. Here is the method: as §1
The target of data set [12] is T1, pro-urokinase plasminogen activator …. Description: SPR (BIAcore), pro-uPA over immobilised p97, two state conformational change model (ka1). On the procedure: as §5, §3, §4
For data set [13], the target named is T2, plasminogen. Description: SPR (BIAcore), plasminogen over immobilised p97, two state conformational change model (kd1). On the procedure: as §1, §3, §4
For data set [14], the target named is T2, plasminogen. Description: SPR (BIAcore), plasminogen over immobilised p97, two state conformational change model (apparent KD). Here is the method: as §1, §3, §4
Data set [15] addresses T1, pro-urokinase plasminogen activator …. Description: SPR (BIAcore), two state conformational change model; text value differs from Table 3. On the procedure:
as §5, §3, §4

T2 sequence (P00747 20-810 limits assumed): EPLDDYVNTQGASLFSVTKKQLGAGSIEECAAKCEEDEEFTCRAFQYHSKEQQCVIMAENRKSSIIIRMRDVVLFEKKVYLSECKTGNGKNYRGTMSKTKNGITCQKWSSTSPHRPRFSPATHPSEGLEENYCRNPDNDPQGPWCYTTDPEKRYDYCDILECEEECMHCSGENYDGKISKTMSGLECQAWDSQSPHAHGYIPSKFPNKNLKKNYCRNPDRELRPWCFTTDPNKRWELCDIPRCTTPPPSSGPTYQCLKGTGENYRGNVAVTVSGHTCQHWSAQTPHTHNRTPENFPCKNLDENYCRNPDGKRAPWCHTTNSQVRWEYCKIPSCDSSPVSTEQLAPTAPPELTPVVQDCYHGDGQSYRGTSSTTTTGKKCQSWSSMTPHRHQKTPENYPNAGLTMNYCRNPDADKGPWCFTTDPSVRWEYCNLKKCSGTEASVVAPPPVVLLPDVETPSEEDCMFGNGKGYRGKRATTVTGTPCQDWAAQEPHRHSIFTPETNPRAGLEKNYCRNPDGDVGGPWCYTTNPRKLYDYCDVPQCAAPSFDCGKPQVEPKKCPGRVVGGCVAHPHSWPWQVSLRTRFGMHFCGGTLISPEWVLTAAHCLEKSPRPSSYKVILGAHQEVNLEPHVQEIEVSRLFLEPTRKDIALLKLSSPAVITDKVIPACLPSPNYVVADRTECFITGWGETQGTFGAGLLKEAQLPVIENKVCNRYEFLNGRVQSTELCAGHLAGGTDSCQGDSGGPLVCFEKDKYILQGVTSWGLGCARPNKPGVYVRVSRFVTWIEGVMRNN
Chain of plasmin (P00747 97-810 limits assumed): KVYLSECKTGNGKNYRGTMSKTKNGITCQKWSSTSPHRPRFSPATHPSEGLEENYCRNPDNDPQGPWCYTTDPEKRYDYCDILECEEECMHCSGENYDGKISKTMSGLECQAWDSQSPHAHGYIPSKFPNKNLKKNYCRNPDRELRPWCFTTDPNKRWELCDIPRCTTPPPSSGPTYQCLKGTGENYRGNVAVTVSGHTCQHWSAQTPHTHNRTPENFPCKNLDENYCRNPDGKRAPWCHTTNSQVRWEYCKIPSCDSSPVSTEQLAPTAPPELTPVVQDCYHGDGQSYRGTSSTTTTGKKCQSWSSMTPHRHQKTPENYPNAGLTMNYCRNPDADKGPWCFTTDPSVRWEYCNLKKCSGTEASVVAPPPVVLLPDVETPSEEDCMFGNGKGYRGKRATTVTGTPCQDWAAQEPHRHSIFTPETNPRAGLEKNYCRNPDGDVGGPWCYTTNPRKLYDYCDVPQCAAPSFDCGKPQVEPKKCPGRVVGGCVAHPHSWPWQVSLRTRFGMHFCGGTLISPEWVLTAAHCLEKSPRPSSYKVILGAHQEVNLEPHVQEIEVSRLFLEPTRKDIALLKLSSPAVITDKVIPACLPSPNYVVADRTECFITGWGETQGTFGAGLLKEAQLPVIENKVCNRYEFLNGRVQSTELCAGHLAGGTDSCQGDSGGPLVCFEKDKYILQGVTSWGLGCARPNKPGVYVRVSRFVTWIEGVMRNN

Turning to B1, the binding result in [1] is given as “no binding (tested: 0.05 µg/µl)”.

Consider B2, for which the binding result in data set [2] is “no binding”.

B3: the binding result in data set [3] is “no binding (tested: 0.05 µg/µl)”.

Regarding B4, the binding result in data set [4] is on record as “no binding (tested: 0.05 µg/µl)”.

Consider B5, for which the koff in [5] worked out at 0.0017 s⁻¹; in the data set with plasminogen [13], 0.043 s⁻¹. The binding result was “no binding (tested: 0.05 µg/µl)” with plasmin and “no binding (tested: 0.05 µg/µl (5 µg/100 µl))” in [9]. Further, the “increase of plasminogen activation by tPA after 180 minutes (VLK-peptide hydrolysis)” value in the data set with plasminogen [6] turned out to be 6 fold. For the same molecule, the “increase of plasminogen activation by tPA in the presence of p97 (VLK peptide hydrolysis)” value with plasminogen [6] came to 4 fold. In addition, the Kd with plasminogen [7] was found to be 260 nM; in [8], 65 nM; in the data set with plasminogen [11], 275 nM; with plasminogen [14], 350 nM. Moreover, the kon with plasminogen [10] was 21000 M⁻¹ s⁻¹; in data set [12] it was 6620 M⁻¹ s⁻¹; in data set [15], 6600 M⁻¹ s⁻¹.

Source of the values: patent US20070053894A1 (TRANSFERT PLUS, published 2007).
